Assay in all cases: SEC; analytical size-exclusion chromatography, Superdex 75 10/300GL, calibrated with Bio-Rad gel filtration standard, 0.5 mL/min, 100 mM TEA pH 7.4, 10 mM EDTA, 1 mM DTT; dimer of identical subunits
On the technique in general: In gel filtration, larger molecules generally elute earlier.

Experiment [1] deals with chloroplast triosephosphate isomerase from Arabidopsis thaliana, without the predicted chloroplast targeting sequence (Arabidopsis thaliana).
In experiment [2] the target is cytoplasmic triosephosphate isomerase from Arabidopsis thaliana (Arabidopsis thaliana) (UniProt P48491).
In experiment [3] the target is pdTPI-C15S (Arabidopsis thaliana).
The target of experiment [4] is pdTPI-C15S/C89S (Arabidopsis thaliana).
Experiment [5] has as its target pdTPI-C89S (Arabidopsis thaliana).

These results are taken from PMC5138414, “Structural Basis for Redox Regulation of Cytoplasmic and Chloroplastic Triosephosphate Isomerases from Arabidopsis thaliana” (Frontiers in Plant Science, 2016).

The term stoichiometry N denotes a count of units in the complex or per binding partner. In the case of “chloroplast triosephosphate isomerase from Arabidopsis thaliana, without the predicted chloroplast targeting sequence (enzyme)”, in experiment [1], the stoichiometry N was 2. As to “cytoplasmic triosephosphate isomerase from Arabidopsis thaliana (from UniProt P48491 1-254) (enzyme)”, the stoichiometry N in experiment [2] amounted to 2. pdTPI-C15S (enzyme) displayed a stoichiometry N in experiment [3] of 2. Turning to pdTPI-C15S/C89S (enzyme), the stoichiometry N in experiment [4] is 2. pdTPI-C89S (enzyme) returned a stoichiometry N in experiment [5] of 2.
